Results reported in the supplement of paper PMC6757056.
± gives the standard deviation of the averaged measurements.

B1: library; a variant is named by its letters at N, in order (parent)
chain: GCUGUCACCGGUGUAUUACCCUAGUGGUCGACCGGUCUGAUGAGUCUNNNNNNAGACGAAACAGC

Tests used:
[1] = variants of: B1; experiment: normalized RNA/DNA level with ligand (relative to sTRSVctl = 100) (log10 (% of sTRSVctl)); ligand: hypoxanthine (xanthine aptamer); higher = less ribozyme self-cleavage, higher mRNA level; settings: ligand concentration (+) RNA-Seq: 5 mM, HEK293T, reporter: mCherry (pCS4076), ligand present: yes
Outline: (§1)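 Total RNA, extracted with EDTA 72 h after HEK293T cells were transfected with 4 µg per 6-well well of reporter-linked ribozyme switch library plasmids, was reverse-transcribed, amplified, barcoded and sequenced. Ligand, if used, was added 1 h before transfection. RNA level was derived from RNA reads divided by DNA reads and normalized to a spiked-in non-cleaving sequence or to the top sequences. This was multiplied by 100 and log10-transformed, with the top set of 25 sequences and a ≥100 DNA read minimum.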

[2] = variants of: B1; experiment: normalized RNA/DNA level without ligand (relative to sTRSVctl = 100) (log10 (% of sTRSVctl)); ligand: hypoxanthine (xanthine aptamer); higher = less ribozyme self-cleavage, higher mRNA level; settings: HEK293T, reporter: mCherry (pCS4076), ligand present: no
Outline: as §1

Row | Variant | normalized RNA/DNA level with ligand (log10) [1] | normalized RNA/DNA level without ligand (log10) [2]
1 | ACCGUG | 1.8625 ± 0.00016 | 1.45 ± 0.051
2 | ACCCAU | 1.93 ± 0.026 | 1.79 ± 0.051
3 | ACCCAC | 1.921 ± 0.0048 | 1.792 ± 0.0063
4 | ACCCAA | 1.896 ± 0.013 | 1.801 ± 0.013
5 | ACCCAG | 1.83 ± 0.03 | 1.48 ± 0.044
6 | CCGAAC | 1.9 ± 0.019 | 1.606 ± 0.0099
7 | CCGAAU | 1.9 ± 0.083 | 1.66 ± 0.028
8 | GCCUAU | 1.944 ± 0.013 | 1.852 ± 0.011
9 | GCCUAC | 1.954 ± 0.0075 | 1.757 ± 0.0057
10 | CCAUCA | 1.97 ± 0.056 | 2.01 ± 0.049
11 | CCAUCC | 2 ± 0.087 | 1.975 ± 0.015
12 | CCAUCG | 1.91 ± 0.024 | 1.79 ± 0.019
13 | CCAUCU | 2.036 ± 0.0026 | 1.951 ± 0.015
14 | ACCAUG | 1.91 ± 0.02 | 1.571 ± 0.013
15 | ACAUGC | 1.914 ± 0.015 | 1.77 ± 0.024
16 | GCAUUC | 2 ± 0.023 | 1.81 ± 0.047
17 | GCAUUA | 1.92 ± 0.023 | 1.877 ± 0.01
18 | GCAUUU | 1.922 ± 0.019 | 1.88 ± 0.042
19 | UCCCGG | 1.95 ± 0.11 | 1.668 ± 0.0066
20 | UCCCGA | 1.956 ± 0.0054 | 1.8 ± 0.031
21 | UCCCGC | 1.924 ± 0.018 | 1.51 ± 0.017
22 | UCCAAC | 2 ± 0.021 | 1.9 ± 0.033
23 | UCCAAU | 1.94 ± 0.021 | 1.79 ± 0.018
24 | CCAGUU | 2.01 ± 0.029 | 1.928 ± 0.0095

Row | Variant | normalized RNA/DNA level with ligand (log10) [1] | normalized RNA/DNA level without ligand (log10) [2]
25 | CCAGUG | 1.93 ± 0.051 | 1.69 ± 0.077
26 | CCAGUC | 1.99 ± 0.038 | 1.974 ± 0.0045
27 | UCCGCC | 1.992 ± 0.013 | 1.773 ± 0.015
28 | UCCGCU | 1.94 ± 0.055 | 1.944 ± 0.0031
29 | UCCGCA | 1.9294 ± 0.00025 | 1.807 ± 0.014
30 | ACCACC | 2.012 ± 0.02 | 1.927 ± 0.0086
31 | ACCACU | 1.96 ± 0.023 | 1.92 ± 0.048
32 | ACCACG | 1.91 ± 0.032 | 1.67 ± 0.023
33 | ACCACA | 1.94 ± 0.044 | 1.902 ± 0.0069
34 | GCCGUG | 1.91 ± 0.025 | 1.48 ± 0.036
35 | GCCGUA | 1.965 ± 0.011 | 1.84 ± 0.061
36 | GCCGUC | 1.94 ± 0.096 | 1.91 ± 0.074
37 | GCCCGA | 2.012 ± 0.015 | 1.719 ± 0.0081
38 | GCCCGU | 1.962 ± 0.019 | 1.83 ± 0.044
39 | CCCACG | 1.917 ± 0.019 | 1.83 ± 0.029
40 | CCCACC | 2.01 ± 0.063 | 1.96 ± 0.032
41 | CCCACU | 1.96 ± 0.037 | 1.87 ± 0.022
42 | ACCUUU | 1.97 ± 0.034 | 1.89 ± 0.0069
43 | ACCUUC | 1.958 ± 0.018 | 1.96 ± 0.03
44 | ACCUUA | 1.94 ± 0.068 | 1.86 ± 0.03
45 | ACCAAG | 1.89 ± 0.088 | 1.5 ± 0.098
46 | CCCGAA | 1.9 ± 0.085 | 1.76 ± 0.033
47 | CCCGAC | 1.959 ± 0.0051 | 1.84 ± 0.033
48 | CCCGAU | 1.97 ± 0.033 | 1.8 ± 0.029

Row | Variant | normalized RNA/DNA level with ligand (log10) [1] | normalized RNA/DNA level without ligand (log10) [2]
49 | CCCGAG | 1.89 ± 0.035 | 1.65 ± 0.022
50 | GCCAUU | 1.96 ± 0.013 | 1.918 ± 0.01
51 | UCCUGU | 1.93 ± 0.021 | 1.86 ± 0.043
52 | UCCUGA | 1.974 ± 0.017 | 1.77 ± 0.069
53 | ACAGUG | 1.85 ± 0.039 | 1.35 ± 0.021
54 | ACAGUA | 1.908 ± 0.015 | 1.76 ± 0.029
55 | GCCCAU | 1.929 ± 0.0057 | 1.866 ± 0.00087
56 | GCCCAC | 1.92 ± 0.023 | 1.76 ± 0.028
57 | GCCCAA | 1.94 ± 0.037 | 1.8 ± 0.021
58 | UCCGUA | 1.956 ± 0.0079 | 1.7408 ± 0.0014
59 | UCCGUC | 1.97 ± 0.059 | 2.03 ± 0.042
60 | ACAUAU | 1.89 ± 0.072 | 1.6935 ± 0.0011
61 | ACAUAC | 1.94 ± 0.034 | 1.823 ± 0.015
62 | UCCUCU | 1.99 ± 0.053 | 1.98 ± 0.029
63 | UCCUCA | 2 ± 0.033 | 1.88 ± 0.048
64 | UCCUCC | 1.99 ± 0.055 | 1.78 ± 0.039
65 | UCCUCG | 1.97 ± 0.065 | 1.68 ± 0.058
66 | ACAUUA | 1.926 ± 0.0045 | 1.85 ± 0.036
67 | ACAUUG | 1.91 ± 0.057 | 1.53 ± 0.043
68 | ACAUUU | 1.9 ± 0.04 | 1.796 ± 0.01
69 | ACCGCA | 1.93 ± 0.082 | 1.845 ± 0.017
70 | ACCGCU | 1.925 ± 0.0096 | 1.89 ± 0.041
71 | CCCUCG | 1.93 ± 0.087 | 1.8103 ± 0.0013
72 | CCCUCC | 1.95 ± 0.065 | 2 ± 0.08

Row | Variant | normalized RNA/DNA level with ligand (log10) [1] | normalized RNA/DNA level without ligand (log10) [2]
73 | CCCUCA | 1.978 ± 0.0074 | 1.9723 ± 0.00098
74 | GCCAGU | 1.92 ± 0.06 | 1.79 ± 0.046
75 | GCCAGG | 1.872 ± 0.0046 | 1.43 ± 0.1
76 | GCCAGA | 1.909 ± 0.0037 | 1.72 ± 0.056
77 | GCCAGC | 1.97 ± 0.047 | 1.81 ± 0.055
78 | ACAUCC | 1.98 ± 0.049 | 1.931 ± 0.0044
79 | ACAUCA | 1.96 ± 0.046 | 1.91 ± 0.029
80 | ACAUCU | 1.97 ± 0.024 | 1.87 ± 0.073
81 | ACCAGC | 1.993 ± 0.0011 | 1.94 ± 0.043
82 | ACCAGG | 1.832 ± 0.015 | 1.44 ± 0.064
83 | ACCAGA | 1.952 ± 0.009 | 1.77 ± 0.024
84 | ACCUCU | 1.99 ± 0.054 | 1.926 ± 0.01
85 | ACCUCC | 1.99 ± 0.03 | 1.919 ± 0.018
86 | ACCUCA | 1.904 ± 0.0082 | 1.89 ± 0.027
87 | ACCUCG | 1.928 ± 0.017 | 1.62 ± 0.062
88 | CCCCUU | 2 ± 0.045 | 1.913 ± 0.014
89 | CCCCUA | 1.98 ± 0.061 | 1.855 ± 0.0056
90 | CCCCUG | 1.927 ± 0.0039 | 1.81 ± 0.04
91 | GCCGGC | 1.96 ± 0.066 | 1.762 ± 0.015
92 | GCCGGA | 1.95 ± 0.043 | 1.93 ± 0.065
93 | GCCGGG | 1.94 ± 0.023 | 1.87 ± 0.06
94 | ACCUAU | 1.908 ± 0.015 | 1.792 ± 0.0054
95 | ACCUAA | 1.942 ± 0.012 | 1.87 ± 0.028
96 | CCCUGU | 1.94 ± 0.078 | 1.94 ± 0.053

Row | Variant | normalized RNA/DNA level with ligand (log10) [1] | normalized RNA/DNA level without ligand (log10) [2]
97 | CCCUGC | 2.04 ± 0.059 | 1.901 ± 0.0066
98 | CCCUGG | 1.91 ± 0.028 | 1.8 ± 0.05
99 | UCCAGA | 1.93 ± 0.054 | 1.78 ± 0.048
100 | UCCAGC | 2.03 ± 0.048 | 1.9 ± 0.082
101 | UCCAGG | 1.9095 ± 0.00051 | 1.8002 ± 0.0018
102 | CCCAGG | 1.934 ± 0.018 | 1.83 ± 0.019
103 | CCCAGC | 1.999 ± 0.0073 | 1.877 ± 0.013
104 | CCCAGU | 1.934 ± 0.0021 | 1.89 ± 0.032
105 | CCCAGA | 1.93 ± 0.048 | 1.83 ± 0.046
106 | UCCCUU | 1.92 ± 0.051 | 1.781 ± 0.017
107 | UCCCUA | 1.92 ± 0.033 | 1.79 ± 0.043
108 | UCCCUC | 1.98 ± 0.03 | 1.66 ± 0.14
109 | UCCCCG | 1.88 ± 0.025 | 1.5 ± 0.024
110 | UCCCCC | 1.9 ± 0.075 | 1.782 ± 0.016
111 | UCCCCU | 1.996 ± 0.014 | 1.9 ± 0.023
112 | GCCAAU | 1.95 ± 0.053 | 1.798 ± 0.0018
113 | GCCAAC | 1.927 ± 0.014 | 1.74 ± 0.039
114 | ACCGAC | 1.967 ± 0.0065 | 1.825 ± 0.017
115 | ACCGAG | 1.76 ± 0.057 | 1.301 ± 0.0053
116 | ACCGAA | 1.897 ± 0.018 | 1.74 ± 0.045
